For one experiment, the target named is Serum complement C1q (UniProt P02745 23-245; P02746 28-253; P02747 29-245). As to the kind of experiment: BLI (Fortebio Octet), antibody immobilised on FAB2G sensor, C1q in solution at 1.25-20 nM. How it is done: 50 μg/mL antibody was immobilized on the FAB2G sensor at an immobilization height of about 2.0 nm. The sensor was equilibrated in a buffer for 60 s for blocking, and the binding of the immobilized antibody on the sensor to the antigen C1q at concentrations of 1.25-20 nM (serial two-fold dilution) was determined for 60 s. The antigen and antibody were dissociated in the buffer for 60 s. The sensor was refreshed 4 times in 10 mM glycine pH 1.7, each for 5 s. The shaking speed of the sample plate was 1000 rpm, the temperature was 30° C. and the frequency was 0.6 Hz. The data were analyzed by 1:1 model fitting to obtain affinity constants. The data acquisition software was Fortebio Data Acquisition 7.0, and the data analysis software was Fortebio Data Analysis 7.0.
Chain of Serum complement C1q (P02745 23-245 limits assumed, chain 1 of 3): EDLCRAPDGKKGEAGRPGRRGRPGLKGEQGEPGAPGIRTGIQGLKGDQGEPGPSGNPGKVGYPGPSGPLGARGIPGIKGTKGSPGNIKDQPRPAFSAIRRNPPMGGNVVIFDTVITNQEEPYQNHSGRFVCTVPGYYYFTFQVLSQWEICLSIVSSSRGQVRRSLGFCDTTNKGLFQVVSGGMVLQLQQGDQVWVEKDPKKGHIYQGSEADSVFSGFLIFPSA
Chain of Serum complement C1q (P02746 28-253 limits assumed, chain 2 of 3): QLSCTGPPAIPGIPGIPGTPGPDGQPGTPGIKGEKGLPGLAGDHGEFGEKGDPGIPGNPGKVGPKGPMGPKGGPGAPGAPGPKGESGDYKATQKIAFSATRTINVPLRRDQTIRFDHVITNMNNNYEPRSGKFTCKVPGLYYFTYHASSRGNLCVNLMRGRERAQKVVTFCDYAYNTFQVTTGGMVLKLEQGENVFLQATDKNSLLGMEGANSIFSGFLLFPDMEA
Chain of Serum complement C1q (P02747 29-245 limits assumed, chain 3 of 3): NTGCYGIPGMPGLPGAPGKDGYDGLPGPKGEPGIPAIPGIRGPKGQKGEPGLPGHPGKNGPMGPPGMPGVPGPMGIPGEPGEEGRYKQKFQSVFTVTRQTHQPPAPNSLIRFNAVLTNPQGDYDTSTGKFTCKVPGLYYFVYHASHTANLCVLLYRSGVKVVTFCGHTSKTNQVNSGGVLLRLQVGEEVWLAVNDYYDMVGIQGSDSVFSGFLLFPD
For orientation: Biolayer interferometry detects binding as a change in optical thickness at a sensor tip.

A further experiment addresses T1, Fc receptor FcγRIIb (human, UniProt P31994 43-217).
T1 construct: also called CD32b; hFcγRIIb-his; not shown: his tag named in 'hFcγRIIb-his'
T1 sequence (looked up): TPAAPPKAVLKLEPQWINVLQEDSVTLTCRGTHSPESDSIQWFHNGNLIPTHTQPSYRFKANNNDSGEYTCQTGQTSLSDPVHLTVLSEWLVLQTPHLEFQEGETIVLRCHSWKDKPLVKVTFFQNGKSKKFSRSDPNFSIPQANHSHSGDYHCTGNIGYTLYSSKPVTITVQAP
The experiment is described as follows: BLI (Fortebio Octet), hFcγRIIb-his immobilised on NTA sensor, antibody in solution at 12.5-200 nM. How it is done:
5 μg/mL hFcγRIIb-his was immobilized on the NTA sensor at an immobilization height of about 1.0 nm. The sensor was equilibrated in a buffer of 0.02% Tween-20, 0.02% casein and 0.1% BSA in PBS, pH 7.4 for 300 s of blocking, and the binding of the immobilized hFcγRIIb-his on the sensor to the antibodies at concentrations of 12.5-200 nM (serial two-fold dilution) was determined for 60 s. The antibody was dissociated in the buffer for 60 s. The sensor was refreshed in 10 mM glycine pH 1.7 and […] nickel sulfate. The temperature was 30° C. and the frequency was 0.6 Hz. The data were analyzed by 1:1 model fitting to obtain affinity constants.

Experiment [1] deals with Fc receptor FcγRIIIa_F158 (UniProt P08637 17-208). As to the kind of experiment: BLI (Fortebio Octet), FcγRIIIa_F158 immobilised on HIS1K sensor, antibody in solution at 31.25-500 nM. How it is done:
5 μg/mL FcγRIIIa_F158 was immobilized on the HIS1K sensor for 120 s. The sensor was equilibrated in a buffer for 60 s, and the binding of the immobilized FcγRIIIa_F158 on the sensor to the antibodies at concentrations of 31.25-500 nM (serial two-fold dilution) was determined for 60 s. The antibody was dissociated in the buffer for 60 s. The sensor was refreshed 4 times in 10 mM glycine pH 1.5, each for 5 s. The temperature was 30° C. and the frequency was 0.3 Hz. The data were analyzed by 1:1 model fitting to obtain affinity constants.

In experiment [2] the target is T2, Fc receptor FcγRIIIa_V158 (UniProt P08637 17-208). As to the kind of experiment: BLI (Fortebio Octet); sentence on Table 2, differs from the table's 6.12E-07. Here is the method: (§1) 5 μg/mL FcγRIIIa_V158 was immobilized on the HIS1K sensor for 120 s. The sensor was equilibrated in a buffer for 60 s, and the binding of the immobilized FcγRIIIa_V158 on the sensor to the antibodies at concentrations of 31.25-500 nM (serial two-fold dilution) was determined for 60 s. The antibody was dissociated in the buffer for 60 s. The sensor was refreshed 4 times in 10 mM glycine pH 1.5, each for 5 s. The temperature was 30° C. and the frequency was 0.3 Hz. The data were analyzed by 1:1 model fitting to obtain affinity constants.
T2 sequence (P08637 17-208 F176V limits assumed): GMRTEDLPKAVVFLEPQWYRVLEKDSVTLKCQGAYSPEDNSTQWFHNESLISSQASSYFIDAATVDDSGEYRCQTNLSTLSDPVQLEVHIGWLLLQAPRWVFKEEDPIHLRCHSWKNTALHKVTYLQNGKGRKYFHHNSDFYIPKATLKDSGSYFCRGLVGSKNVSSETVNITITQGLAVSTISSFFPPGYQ

Experiment [3] deals with T2, Fc receptor FcγRIIIa_V158. As to the kind of experiment: BLI (Fortebio Octet); FcγRIIIa_V158 on HIS1K sensor, antibody 31.25-500 nM; 1:1 fit. How it is done: as §1

Chain of Fc receptor FcγRIIIa_F158 (P08637 17-208 limits assumed): as the sequence (P08637 17-208 F176V limits assumed) above, with V160F counted along it

B1: 14C12H1L1(hG1DM) (antibody, human IgG1, kappa, L234A L235A)
heavy: not shown
light: DIQMTQSPSSMSASVGDRVTFTCRASQDINTYLSWFQQKPGKSPKTLIYRANRLVSGVPSRFSGSGSGQDYTLTISSLQPEDMATYYCLQYDEFPLTFGAGTKLELKRTVAAPSVFIFPPSDEQLKSGTASVVCLLNNFYPREAKVQWKVDNALQSGNSQESVTEQDSKDSTYSLSSTLTLSKADYEKHKVYACEVTHQGLSSPVTKSFNRGEC
notes: Humanized anti-PD-1 IgG1 mutant of 14C12H1L1(hG1WT) with L234A and L235A in the heavy chain
B1: the binding result in the experiment with Serum complement C1q is reported as “no binding (tested: 20 nM)”; with Fc receptor FcγRIIb, “no binding (tested: 200 nM)”; in experiment [1] it was “no binding (tested: 500 nM)”. Further, the values for the Kd in experiment [2] and in experiment [3] were 621 nM and 612 nM, respectively. In addition, the koff (usually a measure of how fast the partners let go of each other) in experiment [3] was 0.0824 s⁻¹. For the same molecule, in experiment [3], the association rate constant (kon) (in general, the rate constant with which the complex forms) is 135000 M⁻¹ s⁻¹.

Source of the values: patent US20220267444A1 (CTTQ AKESO SHANGHAI BIOMED TECH, published 2022).
